Values of other authors, collected in PMC3819593.

Legend:
LLT1 (Homo sapiens) = LLT1 (Homo sapiens) (UniProt Q9UHP7)
AICL (Homo sapiens) = AICL (Homo sapiens) (UniProt Q92478)
UniProt Q92478, sequence (Q92478 whole entry): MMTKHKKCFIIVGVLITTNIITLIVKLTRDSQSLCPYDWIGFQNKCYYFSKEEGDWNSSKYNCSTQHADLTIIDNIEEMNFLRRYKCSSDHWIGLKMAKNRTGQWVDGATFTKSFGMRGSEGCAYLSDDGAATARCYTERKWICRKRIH

UniProt Q9UHP7, sequence (Q9UHP7 whole entry): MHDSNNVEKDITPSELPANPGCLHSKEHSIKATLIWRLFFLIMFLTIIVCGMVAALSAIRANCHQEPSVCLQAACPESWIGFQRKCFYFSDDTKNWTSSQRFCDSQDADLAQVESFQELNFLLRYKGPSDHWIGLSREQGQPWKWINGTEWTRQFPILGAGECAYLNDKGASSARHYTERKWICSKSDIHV

Substance | Kd (LLT1 (Homo sapiens)) | Kd (AICL (Homo sapiens))
NKRP1A (from UniProt Q12918) | 48 µM | 
NKp80 (from UniProt Q9NZS2) |  | 4 µM
